Experimental data: the supplement of paper PMC10567573

B1: DCAF4 (parent)
chain: TTKCVRQYEGHVNEYAYLPLHVHE
B2: ZNF449 (parent)
chain: RIHSGEEPHKCPECGKRFLRSSDL

Variants of: B1
Test: protein stability index of a GFP-peptide fusion (GPS, HEK-293T) (PSI 1-6); higher = more stable
Conditions: c terminus: a fixed tail appended
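Also: lentivirally expressed fusions sorted by FACS into six bins by GFP to DsRed ratio, PSI derived from sequencing read proportions per bin multiplied by bin number.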

Protein stability index of substitutions, site by site:
T1: F 1.74 | I 2 | E 3.14 | A 2.67 | C 1.9 | H 2.65 | L 2.99 | D 3.45 | G 2.99 | K 2.84

Variants of: B2
Test: as above
Conditions: c terminus: a fixed tail appended

Protein stability index, by site and new letter:
S22: D 4.06 | V 3.58 | A 2.93 | I 2.77 | N 3.3 | M 2.28 | K 2.57 | C 3.94 | F 2.77 | R 3.02 | L 2.67 | E 3.62 | W 1.94 | Y 3.01
L19: N 3.27 | E 4.32 | H 3.41 | A 3.96 | W 3.09 | S 4.05 | I 2.76 | G 4.31 | Q 4.41 | V 3.32 | F 3.26 | R 3.74 | T 3.65 | Y 3.23
F18: L 2.86 | S 3.29 | D 4.4 | R 3.33 | N 4.68 | Y 3.87 | T 3.75 | P 3.83 | V 2.92 | A 5.36 | W 3.5 | C 4.15 | Q 3.58 | E 4.56
I2: S 3.18 | Y 3.79 | H 3.46 | N 4.19 | Q 3.91 | F 3.1 | M 3.48 | E 3.5 | R 3.7 | W 3.9 | L 3.77 | V 3.98 | T 4.76 | G 2.78
R20: W 2.31 | L 3.32 | F 3.35 | A 4.09 | N 4.21 | Q 4.3 | T 3.17 | H 2.89 | E 3.91 | S 3.82 | V 2.27 | M 3.41
H9: M 3.42 | Q 3.19 | Y 3.48 | V 4.15 | A 3.42 | C 4.35 | R 3.18 | F 3.95 | P 3.2 | L 2.19 | T 3.44 | W 2.73 | S 3.28
S4: D 3.56 | K 3.19 | N 4 | Q 4.12 | P 3.16 | A 3.34 | R 2.54 | Y 2.84 | T 3.53 | W 2.5 | E 3.7 | F 2.3 | I 3.07 | V 2.44 | M 2.55 | H 3.18 | G 3.06 | L 3.19
H3: Q 4.33 | K 2.7 | I 3.25 | G 2.72 | Y 3.32 | R 3.02 | L 3.69 | S 3.74 | V 3.34 | D 3.85 | N 3.55 | P 3.69 | M 3.05 | T 3.81
L24: V 3.31 | R 2.29 | Q 4.91 | N 3.89 | A 3.92 | I 2.5 | T 3.79 | M 3.41 | Y 3.29 | H 3.63 | D 4.61 | S 3.88 | W 2.93 | E 4.42 | F 3.3 | C 3.63
S21: K 4.17 | L 2.48 | G 3.75 | F 2.15 | M 2.24 | R 2.65 | I 3.04 | P 2.86 | N 3.56
E6: P 3.69 | V 2.28 | K 2.88 | D 3.25 | Q 3.1 | A 3.24 | H 2.79 | W 2.08 | S 1.79 | L 2.92 | T 2.71 | N 3.08 | Y 2.27 | G 3.23 | M 2.57
D23: A 2.23 | R 1.51 | K 2.77 | F 2.04 | C 2.75 | S 2.46 | E 2.52 | V 1.73 | I 1.61 | L 2.16 | T 2.7 | P 2.29
K16: F 2.55 | V 2.37 | D 4.41 | R 3.9 | N 3.58 | C 3.32 | T 3.68 | S 3.68 | W 2.69 | I 2.93 | P 3.82 | H 3.19 | M 2.61 | E 3.99 | Q 3.66
R17: F 3.2 | G 3.12 | E 4.2 | N 3.4 | Y 3.58 | I 3.72 | P 3.66 | L 3.08 | D 3.71 | S 4 | M 3.59 | K 4.13 | A 3.61
C14: R 4.32 | K 3.87 | W 4.39 | F 3.47 | Q 4.96 | H 3.95 | E 5.1 | S 4.77 | L 3.79 | N 4.3 | D 4.58 | M 4.21 | A 4.26 | Y 3.6 | I 5 | G 4.65 | P 4.06
E13: V 3.44 | F 3.77 | P 3.6 | Q 2.13 | Y 3.54 | M 2.92 | C 3.71 | K 2.72 | I 3.26 | W 3.86 | A 2.72 | S 3.63 | D 2.59
G5: L 3.68 | I 3.34 | S 4.04 | A 3.79 | M 3.75 | Q 3.82 | V 3.07 | F 3.22 | R 3.2 | K 3.41 | P 2.85 | W 3.63 | N 3.44
P8: H 3.18 | D 4.1 | N 3 | T 3.45 | A 3.64 | L 3.41 | S 3.25 | E 3.44 | Y 3.57 | I 4.26 | M 3.34
E7: Y 2.71 | D 2.82 | L 2.98 | R 1.89 | F 2.98 | P 2.95 | A 2.71 | H 3.45 | M 3.22 | N 2.51 | I 2.68 | Q 3.26
K10: I 3.74 | A 3.35 | L 3.96 | N 3.42 | V 4.17 | Y 3.94 | G 3.82 | D 4.19 | H 2.95 | M 3.17
G15: D 3.27 | L 3.58 | N 3.52 | K 3.63 | T 3.89 | W 2.87 | V 3.25 | S 3.76 | H 2.87 | Y 3.44 | A 3.9 | P 4.37 | F 3.48 | E 4.24
C11: Y 4.21 | W 3.79 | P 4.23 | K 4.5 | M 4.35 | F 3.54 | H 4.41 | T 4.17 | I 4.51 | R 4.32 | D 4.17
P12: F 3.29 | N 4.18 | I 2.94 | W 2.05 | G 3.08 | Y 3.12 | Q 3.33 | K 3.2 | R 2.92 | E 4.41 | T 3.76 | A 3.15 | D 4.36 | S 3.66 | M 3.36
R1: K 3.6 | Q 4.11 | T 3.37 | L 2.92 | V 3.05 | P 4.04 | H 4.07 | I 2.38 | C 5.29 | Y 1.9 | N 3.72 | A 3.75 | S 3.86 | M 3.4 | E 4.41
